Reference: the supplement of paper PMC6757056
± gives the standard deviation of the averaged measurements.

B1: library; a variant is named by its letters at N, in order (parent)
chain: GCUGUCACCGGUGUAUUACCCUAGUGGUCGACCGGUCUGAUGAGUCUNNNNNNAGACGAAACAGC

How the values were obtained:
hypoxanthine [1] = variants of: B1; assay: normalized RNA/DNA level with ligand (relative to sTRSVctl = 100) (log10 (% of sTRSVctl)); ligand: hypoxanthine (xanthine aptamer); higher = less ribozyme self-cleavage, higher mRNA level; settings: ligand concentration (+) RNA-Seq: 5 mM, HEK293T, reporter: mCherry (pCS4076), ligand present: yes
In short: (§1)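 Library plasmids encoding reporter-linked ribozyme switches (mCherry, or eGFP for some folinic acid experiments) were transfected into HEK293T at 4 µg per 6-well well. Ligand, when used, was added 1 h before transfection. Total RNA was extracted with EDTA 72 h later, then reverse-transcribed, amplified, barcoded and sequenced. RNA level was RNA reads over DNA reads, divided by a spiked-in non-cleaving control (or the top 25 sequences), ×100, log10; only sequences with ≥100 DNA reads were kept.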

hypoxanthine [2] = variants of: B1; assay: normalized RNA/DNA level without ligand (relative to sTRSVctl = 100) (log10 (% of sTRSVctl)); ligand: hypoxanthine (xanthine aptamer); higher = less ribozyme self-cleavage, higher mRNA level; settings: HEK293T, reporter: mCherry (pCS4076), ligand present: no
In short: as §1

Variant	normalized RNA/DNA level with ligand (log10) (hypoxanthine [1])	normalized RNA/DNA level without ligand (log10) (hypoxanthine [2])
CUGAAU	1.93 ± 0.062	1.74 ± 0.062
CUGAAC	1.9 ± 0.066	1.76 ± 0.019
UUGCAA	1.92 ± 0.03	1.79 ± 0.048
UUGCAG	1.915 ± 0.017	1.79 ± 0.099
UUGCAC	1.96 ± 0.051	1.9 ± 0.038
GUCUAU	1.94 ± 0.059	1.82 ± 0.026
GUCUAC	1.94 ± 0.043	1.8 ± 0.018
CUCGCU	1.95 ± 0.043	1.924 ± 0.014
CUGAGU	1.94 ± 0.073	1.839 ± 0.0049
CUGAGC	1.947 ± 0.0077	1.79 ± 0.065
GUGACA	1.9 ± 0.04	1.78 ± 0.033
GUGACC	1.931 ± 0.012	1.74 ± 0.019
AUCUGC	1.97 ± 0.04	1.88 ± 0.022
AUCUGU	1.91 ± 0.026	1.787 ± 0.014
UUCGGG	1.95 ± 0.044	1.73 ± 0.027
UUCGGA	1.95 ± 0.034	1.75 ± 0.044
UUCGGC	1.95 ± 0.098	1.89 ± 0.025
UUGAAC	1.92 ± 0.052	1.855 ± 0.01
UUGAAU	1.95 ± 0.03	1.8 ± 0.031
UUCUUC	2.01 ± 0.062	2.06 ± 0.039

Variant	normalized RNA/DNA level with ligand (log10) (hypoxanthine [1])	normalized RNA/DNA level without ligand (log10) (hypoxanthine [2])
UUCUUA	1.95 ± 0.014	1.883 ± 0.018
UUCUUG	1.92 ± 0.068	1.794 ± 0.016
UUCUUU	1.927 ± 0.013	1.98 ± 0.034
CUCUUU	2 ± 0.0092	1.912 ± 0.014
CUCUUA	1.895 ± 0.0051	1.825 ± 0.012
CUCUUG	1.93 ± 0.045	1.87 ± 0.044
GUGAGU	1.94 ± 0.028	1.639 ± 0.0057
UUCGUU	1.94 ± 0.11	1.84 ± 0.054
UUCGUG	1.964 ± 0.019	1.7 ± 0.041
UUCGUC	2.0298 ± 0.00024	2.03 ± 0.041
AUCUAC	1.9 ± 0.12	1.855 ± 0.013
AUCUAU	1.93 ± 0.032	1.83 ± 0.074
AUCUAG	1.91 ± 0.033	1.61 ± 0.019
CUCUGG	1.937 ± 0.0091	1.75 ± 0.084
CUCUGU	1.963 ± 0.0084	1.94 ± 0.028
CUCUGA	1.96 ± 0.047	1.944 ± 0.009
GUCGGU	1.91 ± 0.051	1.83 ± 0.035
UUGACU	1.95 ± 0.077	1.9 ± 0.042
UUGACC	1.96 ± 0.049	1.987 ± 0.011
AUCUUU	1.99 ± 0.024	1.91 ± 0.046

Variant	normalized RNA/DNA level with ligand (log10) (hypoxanthine [1])	normalized RNA/DNA level without ligand (log10) (hypoxanthine [2])
AUCUUC	2.02 ± 0.031	2.006 ± 0.0047
AUCUUA	1.916 ± 0.012	1.827 ± 0.011
CUCUCU	1.89 ± 0.034	1.904 ± 0.012
CUCUCA	1.96 ± 0.0068	1.91 ± 0.027
GUGAAA	1.895 ± 0.016	1.66 ± 0.027
GUGAAC	1.9 ± 0.024	1.57 ± 0.046
GUGAAU	1.9 ± 0.024	1.7 ± 0.052
CUGACU	1.99 ± 0.038	1.9 ± 0.072
CUGACG	1.89 ± 0.057	1.86 ± 0.074
UUCUAU	1.95 ± 0.047	1.867 ± 0.016
UUCUAC	1.87 ± 0.041	1.89 ± 0.085
UUCUAG	1.936 ± 0.0068	1.67 ± 0.059
CUCUAA	1.93 ± 0.051	1.8 ± 0.054
CUCUAG	1.9 ± 0.0079	1.78 ± 0.011
CUCUAU	2.03 ± 0.035	1.848 ± 0.0086
CUCUAC	1.966 ± 0.013	1.87 ± 0.019
AUGACC	1.914 ± 0.019	1.902 ± 0.016
AUGACU	1.95 ± 0.024	1.829 ± 0.016
